Data set [1] concerns the target Drp6-4A (Drp6 GKFR-AAAA), N-terminal His6 tag (Tetrahymena thermophila) (UniProt Q38KF5).
For data set [2] the target is unchanged. Nature of the data set: SEC.
Data set [3] deals with the molecule itself. The data set is described as follows: SEC.

“And” between values parts separate entries of the source, which are not always exact repeats. Equal values may be shown once.

The term stoichiometry N denotes a count of units in the complex or per binding partner. “Drp6-4A (Drp6 GKFR-AAAA), N-terminal His6 tag (from UniProt Q38KF5 1-710) (natural protein)”: the GTP hydrolysis rate (colorimetric Pi release, 1 μM protein, 1 mM GTP) in data set [1] was found to be 0.83 μM /μM/min. Also, in data set [2], the percent eluted in the tetramer peak (peak2) was found to be 19% and the stoichiometry N was determined as 4.

B1: Dynamin-related protein 6 (Drp6), wild type, N-terminal His6 tag (natural protein, Tetrahymena thermophila, UniProt Q38KF5 1-710, looked up)
chain: MTNTIVPANNFQNIKEVIKVVNKLRDFGIESDKIQLPKIVVIGVQSSGKSSLLEQIVQLDFLPRGTGVVTRCPLEIRLIEVTNQDSDFKPYAYFFEERQKIFHDFELVKKEIQKITNDFAGPGKKIVDKVITLTIYQAQCPTLTLIDLPGMTLNSVGDQKDIERVTQDMTKKYIIEKTTIILCVIPINQDLENSLALNLARSVDENGERTIGVLTMIDIMNPGTNCENVLKNRQIPLLHRYYGMKPRSQKDINENVSVQEAIQREQLYFTSHQIYSMYPEYTGTNALTNKLSTLLDSHIRTFLPSIHKKIKMTLSERIKERQQLGNEFPTEVTQQLYELTNIINTSLNLFKQAMTNYDASEIQNIGKIKVDERVGKSYADFLFDKYLLICKKISEEQVFKVKMKDLIKELGKFRVQVNGFLPFEVFESQIKQKINLYETEAIVILEQLKEHVRKVLNHCIDLFPFPNNKIKKIMQDILQNFVQTEYNFTSSHIKTAFYCYKDCICSKMIDIHETESKLKQNHVYLQNDNQQKKVLYEYISKNKSFMEWTVQEIMIKAENLCNVPITMSDLQNTYTKAEEKVQNTDEVLRYSIIYYKYMDNFRKQISDQIPQCIQSLFINSLCKNLMVKVFQAIQSKEYKEIIEKNLKEDEIIATKRAKVIQSIQKLAKANDRLERLIDQGQNCNHMLSTTYGDEENYIHESLEDSDGIDD
For the molecule B1, in data set [3], the “stoichiometry N” value is ≥ 6 protomers and 4.

The record behind these values is paper doi:10.1101/2025.02.19.639038 (bioRxiv, 2025).
